Results published in article PMC7143960, “Protein Engineering of a Pyridoxal-5′-Phosphate-Dependent L-Aspartate-α-Decarboxylase from Tribolium castaneum for β-Alanine Production” (Molecules, 2020).

Tests used:
[1] = molecular target: T1, TcPanD (PLP-dependent L-aspartate-α-decarboxylase) (Tribolium castaneum, UniProt A7U8C7); experiment: enzyme activity versus added PLP; format: biochemical; settings: 0.1 M phosphate pH 7.0, 37 °C, L-aspartate substrate
T1 sequence (A7U8C7 1-540): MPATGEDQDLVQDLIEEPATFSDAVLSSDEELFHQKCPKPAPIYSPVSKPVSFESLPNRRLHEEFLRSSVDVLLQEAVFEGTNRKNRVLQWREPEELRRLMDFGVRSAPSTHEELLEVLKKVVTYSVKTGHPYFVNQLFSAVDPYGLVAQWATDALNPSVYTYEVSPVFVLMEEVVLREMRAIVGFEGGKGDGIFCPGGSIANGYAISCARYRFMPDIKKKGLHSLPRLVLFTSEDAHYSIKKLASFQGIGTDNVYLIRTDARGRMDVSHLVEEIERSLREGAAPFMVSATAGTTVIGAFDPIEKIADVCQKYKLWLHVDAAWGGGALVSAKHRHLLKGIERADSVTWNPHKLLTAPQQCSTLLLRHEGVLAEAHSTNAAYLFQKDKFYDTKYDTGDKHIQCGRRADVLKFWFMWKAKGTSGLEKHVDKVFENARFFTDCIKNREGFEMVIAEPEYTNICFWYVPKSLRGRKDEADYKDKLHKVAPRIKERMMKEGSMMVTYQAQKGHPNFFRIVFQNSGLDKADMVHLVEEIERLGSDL

N[C@@H](CC(=O)O)C(=O)O = experiment: purified protein; format: biochemical, Tribolium castaneum; settings: 0.1 M phosphate pH 7.0, 37 °C, L-aspartate 0.5-100 mM, apparent parameters
purified protein = substrate: N[C@@H](CC(=O)O)C(=O)O; experiment: purified protein; settings: 0.1 M phosphate pH 7.0, 37 °C, L-aspartate 0.5-100 mM, apparent parameters

For Cc1ncc(COP(=O)(O)O)c(C=O)c1O [pyridoxal 5’-phosphate], the “enzyme activity versus added PLP” value [1] was “the enzymatic activities of the two proteins reached the highest levels under the treatment”.

“TcPanD (PLP-dependent L-aspartate-α-decarboxylase) (Tribolium castaneum; K305S/R98H)” gave a Km (N[C@@H](CC(=O)O)C(=O)O) of 1230 µM, a Vmax (N[C@@H](CC(=O)O)C(=O)O) of 7.05 µmol/min/mg and a kcat (N[C@@H](CC(=O)O)C(=O)O) of 7.64 s⁻¹. For the same molecule, the kcat/Km (N[C@@H](CC(=O)O)C(=O)O) was 6210 M⁻¹ s⁻¹.

B1: TcPanD (PLP-dependent L-aspartate-α-decarboxylase) (Tribolium castaneum) (protein)
chain: T1 sequence (A7U8C7 1-540)
For B1, the Km (purified protein) was 1350 µM, the Vmax (purified protein) was 2.88 µmol/min/mg and the kcat (purified protein) was 3.12 s⁻¹. It also gave a kcat/Km (purified protein) of 2310 M⁻¹ s⁻¹.
